{"source": "paper PMC3663545", "about": "“Allosteric Activation of Trypanosomatid Deoxyhypusine Synthase by a Catalytically Dead Paralog*^([image sbox.jpg])^♦” (The Journal of Biological Chemistry, 2013)", "key": {"[1]": {"molecular_target": "T1, TbDHSc-TbDHSp (Trypanosoma brucei, UniProt Q38BX0+Q4GZD1)", "T1 construct": "gene DHSc; His6-SUMO-TbDHSc co-expressed with tagless TbDHSp in E. coli; SUMO tag cut with Ulp1, tag-free; 50 kDa + 37 kDa; 2:2 heterotetramer, 175 kDa", "T1 sequence (Q38BX0 1-461)": "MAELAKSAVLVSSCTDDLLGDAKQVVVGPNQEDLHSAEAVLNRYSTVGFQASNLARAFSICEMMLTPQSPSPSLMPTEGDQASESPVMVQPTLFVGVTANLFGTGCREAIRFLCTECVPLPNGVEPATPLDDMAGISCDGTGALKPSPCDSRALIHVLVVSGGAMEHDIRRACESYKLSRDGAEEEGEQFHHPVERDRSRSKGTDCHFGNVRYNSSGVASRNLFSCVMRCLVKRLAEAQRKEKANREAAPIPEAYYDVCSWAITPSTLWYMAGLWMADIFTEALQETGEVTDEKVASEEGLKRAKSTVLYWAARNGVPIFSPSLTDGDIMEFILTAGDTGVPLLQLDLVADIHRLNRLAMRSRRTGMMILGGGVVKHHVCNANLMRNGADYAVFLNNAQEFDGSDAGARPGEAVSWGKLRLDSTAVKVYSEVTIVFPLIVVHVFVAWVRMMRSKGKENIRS", "T1 sequence (Q4GZD1 1-342)": "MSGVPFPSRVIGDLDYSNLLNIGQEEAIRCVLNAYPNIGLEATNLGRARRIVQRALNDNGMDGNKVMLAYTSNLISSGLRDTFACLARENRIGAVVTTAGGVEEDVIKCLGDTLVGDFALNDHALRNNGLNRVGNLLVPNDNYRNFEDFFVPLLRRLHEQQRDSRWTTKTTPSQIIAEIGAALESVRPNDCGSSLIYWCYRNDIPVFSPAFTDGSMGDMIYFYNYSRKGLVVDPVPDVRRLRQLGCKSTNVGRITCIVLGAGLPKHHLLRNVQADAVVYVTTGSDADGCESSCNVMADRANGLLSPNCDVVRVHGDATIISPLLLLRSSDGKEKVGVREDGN", "assay": "[3H]spermidine incorporation into eIF5A, nitrocellulose filter binding assay", "assay_type": "biochemical", "text": "[3H]spermidine incorporation into eIF5A, nitrocellulose filter binding assay on TbDHSc-TbDHSp | GC7 inhibited the activity of TbDHSc-TbDBHSp and the growth of BSF cells at similar concentrations"}, "[2]": {"substrate": "NCCCCNCCCN", "assay": "[3H]spermidine incorporation into eIF5A, nitrocellulose filter binding assay", "assay_type": "biochemical, Trypanosoma brucei", "conditions": "1 mM NAD+, 100 μM TbeIF5A, pH 9.3 glycine-NaOH, 37 °C, 1 mM DTT, labelled compound", "text": "(§1) [3H]spermidine incorporation into eIF5A, nitrocellulose filter binding assay on TbDHSc-TbDHSp"}, "[3]": {"substrate": "NC(=O)c1ccc[n+]([C@@H]2O[C@H](COP(=O)(O)OP(=O)(O)OC[C@H]3O[C@@H](n4cnc5c(N)ncnc54)[C@H](O)[C@@H]3O)[C@@H](O)[C@H]2O)c1", "assay": "[3H]spermidine incorporation into eIF5A, nitrocellulose filter binding assay", "assay_type": "biochemical, Trypanosoma brucei", "conditions": "100 μM TbeIF5A, 100 μM spermidine, pH 9.3 glycine-NaOH, 37 °C, 1 mM DTT, varied: cofactor", "text": "as §1"}, "[4]": {"molecular_target": "T2, TbDHSc (T. brucei deoxyhypusine synthase, catalytic subunit), recombinant, expressed as His6-SUMO-TbDHSc (T. brucei, UniProt Q38BX0 1-461)", "T2 construct": "T. brucei deoxyhypusine synthase catalytic subunit (TbDHSc), TriTrypDB Tb927.10.2750; open reading frame cloned into pE-SUMO Kan; 50 kDa on SDS-PAGE; it was removed with Ulp1 before gel filtration and sedimentation velocity; not shown: His6-SUMO, N-terminal, cleaved", "T2 sequence (looked up)": "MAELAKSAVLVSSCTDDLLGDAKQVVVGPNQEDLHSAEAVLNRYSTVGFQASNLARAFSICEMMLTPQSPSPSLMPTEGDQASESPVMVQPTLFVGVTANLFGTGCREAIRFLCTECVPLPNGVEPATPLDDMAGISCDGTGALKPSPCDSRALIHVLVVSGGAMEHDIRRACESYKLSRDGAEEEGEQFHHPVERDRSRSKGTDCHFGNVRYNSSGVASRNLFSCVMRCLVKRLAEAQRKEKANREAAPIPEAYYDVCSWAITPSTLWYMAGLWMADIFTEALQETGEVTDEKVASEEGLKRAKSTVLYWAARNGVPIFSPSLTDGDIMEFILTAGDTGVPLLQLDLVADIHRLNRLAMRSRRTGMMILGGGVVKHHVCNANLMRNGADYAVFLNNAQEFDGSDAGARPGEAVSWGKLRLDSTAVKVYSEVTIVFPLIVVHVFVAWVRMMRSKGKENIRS", "assay": "AUC; sedimentation velocity of the purified TbDHSc-TbDHSp complex at A280 0.7, 0.2 and 0.05 in 50 mM Hepes, 150 mM NaCl, pH 8.0; 20 °C, 40,000 rpm; interference data analysed with SEDFIT c(s)", "conditions": "both partners purified"}}}
{"molecule": "N=C(N)NCCCCCCCN", "note": "[GC7]", "values": [{"measurement": "IC50", "setting": "[1]", "value": "1500 ± 150", "unit": "nM"}]}
{"molecule": "TbDHSc-TbDHSp (Trypanosoma brucei brucei TREU927) (protein, His6-SUMO-TbDHSc co-expressed with tagless TbDHSp in E. coli; SUMO tag cut with Ulp1, tag-free; 50 kDa + 37 kDa; 2:2 heterotetramer, 175 kDa) chain 1: MAELAKSAVLVSSCTDDLLGDAKQVVVGPNQEDLHSAEAVLNRYSTVGFQASNLARAFSICEMMLTPQSPSPSLMPTEGDQASESPVMVQPTLFVGVTANLFGTGCREAIRFLCTECVPLPNGVEPATPLDDMAGISCDGTGALKPSPCDSRALIHVLVVSGGAMEHDIRRACESYKLSRDGAEEEGEQFHHPVERDRSRSKGTDCHFGNVRYNSSGVASRNLFSCVMRCLVKRLAEAQRKEKANREAAPIPEAYYDVCSWAITPSTLWYMAGLWMADIFTEALQETGEVTDEKVASEEGLKRAKSTVLYWAARNGVPIFSPSLTDGDIMEFILTAGDTGVPLLQLDLVADIHRLNRLAMRSRRTGMMILGGGVVKHHVCNANLMRNGADYAVFLNNAQEFDGSDAGARPGEAVSWGKLRLDSTAVKVYSEVTIVFPLIVVHVFVAWVRMMRSKGKENIRS chain 2: MSGVPFPSRVIGDLDYSNLLNIGQEEAIRCVLNAYPNIGLEATNLGRARRIVQRALNDNGMDGNKVMLAYTSNLISSGLRDTFACLARENRIGAVVTTAGGVEEDVIKCLGDTLVGDFALNDHALRNNGLNRVGNLLVPNDNYRNFEDFFVPLLRRLHEQQRDSRWTTKTTPSQIIAEIGAALESVRPNDCGSSLIYWCYRNDIPVFSPAFTDGSMGDMIYFYNYSRKGLVVDPVPDVRRLRQLGCKSTNVGRITCIVLGAGLPKHHLLRNVQADAVVYVTTGSDADGCESSCNVMADRANGLLSPNCDVVRVHGDATIISPLLLLRSSDGKEKVGVREDGN", "values": [{"measurement": "Km", "setting": "[2]", "value": "43 ± 5", "unit": "µM"}, {"measurement": "kcat", "setting": "[2]", "value": "0.015 ± 0.001", "unit": "s⁻¹"}, {"measurement": "Km", "setting": "[3]", "value": "82 ± 16", "unit": "µM"}, {"measurement": "kcat", "setting": "[3]", "value": "0.018 ± 0.001", "unit": "s⁻¹"}]}
{"molecule": "TbDHSp (T. brucei deoxyhypusine synthase prozyme (activating) subunit), recombinant, untagged (natural protein, UniProt Q4GZD1 1-342, looked up, T. brucei deoxyhypusine synthase prozyme subunit (TbDHSp), catalytically dead paralog, TriTrypDB Tb927.1.870; open reading frame cloned untagged into the HindIII-KpnI site of pT7-FLAG-MAT-Tag-2 with a stop codon inserted; 37 kDa on SDS-PAGE; the vector's C-terminal tag was removed by insertion of a stop codon; also called tagless TbDHSp; untagged TbDHSp) MSGVPFPSRVIGDLDYSNLLNIGQEEAIRCVLNAYPNIGLEATNLGRARRIVQRALNDNGMDGNKVMLAYTSNLISSGLRDTFACLARENRIGAVVTTAGGVEEDVIKCLGDTLVGDFALNDHALRNNGLNRVGNLLVPNDNYRNFEDFFVPLLRRLHEQQRDSRWTTKTTPSQIIAEIGAALESVRPNDCGSSLIYWCYRNDIPVFSPAFTDGSMGDMIYFYNYSRKGLVVDPVPDVRRLRQLGCKSTNVGRITCIVLGAGLPKHHLLRNVQADAVVYVTTGSDADGCESSCNVMADRANGLLSPNCDVVRVHGDATIISPLLLLRSSDGKEKVGVREDGN", "values": [{"measurement": "stoichiometry N", "setting": "[4]", "value": "1 TbDHSp per TbDHSc (2:2 heterotetramer)"}]}
